The target in test [1] is T1, human Insulin-like growth factor I receptor (IGF-1R) on tumor cells (human, UniProt P08069 31-1367).
T1 construct: Endogenously expressed on the human tumor cell lines; also called IGF-IR; CD 221 antigen
The test can be described thus: competitive FACS binding on TC-71 cells, competitor labeled <IGF-1R> HUMAB Clone 18, Exp. #1. A general note: A flow cytometer gives signals particle by particle.

Test [2] has as its target T1, human Insulin-like growth factor I …. The test can be described thus: competitive FACS binding on TC-71 cells, competitor labeled <IGF-1R> HUMAB Clone 18, Exp. #2.
The target is the same in test [3]. The test can be described thus: competitive FACS binding on A549 cells, competitor labeled <IGF-1R> HUMAB Clone 18, Exp. #1.
The target is the same in test [4]. The test can be described thus: competitive FACS binding on A549 cells, competitor labeled <IGF-1R> HUMAB Clone 18, Exp. #2.

T1 sequence (P08069 31-1367 limits assumed): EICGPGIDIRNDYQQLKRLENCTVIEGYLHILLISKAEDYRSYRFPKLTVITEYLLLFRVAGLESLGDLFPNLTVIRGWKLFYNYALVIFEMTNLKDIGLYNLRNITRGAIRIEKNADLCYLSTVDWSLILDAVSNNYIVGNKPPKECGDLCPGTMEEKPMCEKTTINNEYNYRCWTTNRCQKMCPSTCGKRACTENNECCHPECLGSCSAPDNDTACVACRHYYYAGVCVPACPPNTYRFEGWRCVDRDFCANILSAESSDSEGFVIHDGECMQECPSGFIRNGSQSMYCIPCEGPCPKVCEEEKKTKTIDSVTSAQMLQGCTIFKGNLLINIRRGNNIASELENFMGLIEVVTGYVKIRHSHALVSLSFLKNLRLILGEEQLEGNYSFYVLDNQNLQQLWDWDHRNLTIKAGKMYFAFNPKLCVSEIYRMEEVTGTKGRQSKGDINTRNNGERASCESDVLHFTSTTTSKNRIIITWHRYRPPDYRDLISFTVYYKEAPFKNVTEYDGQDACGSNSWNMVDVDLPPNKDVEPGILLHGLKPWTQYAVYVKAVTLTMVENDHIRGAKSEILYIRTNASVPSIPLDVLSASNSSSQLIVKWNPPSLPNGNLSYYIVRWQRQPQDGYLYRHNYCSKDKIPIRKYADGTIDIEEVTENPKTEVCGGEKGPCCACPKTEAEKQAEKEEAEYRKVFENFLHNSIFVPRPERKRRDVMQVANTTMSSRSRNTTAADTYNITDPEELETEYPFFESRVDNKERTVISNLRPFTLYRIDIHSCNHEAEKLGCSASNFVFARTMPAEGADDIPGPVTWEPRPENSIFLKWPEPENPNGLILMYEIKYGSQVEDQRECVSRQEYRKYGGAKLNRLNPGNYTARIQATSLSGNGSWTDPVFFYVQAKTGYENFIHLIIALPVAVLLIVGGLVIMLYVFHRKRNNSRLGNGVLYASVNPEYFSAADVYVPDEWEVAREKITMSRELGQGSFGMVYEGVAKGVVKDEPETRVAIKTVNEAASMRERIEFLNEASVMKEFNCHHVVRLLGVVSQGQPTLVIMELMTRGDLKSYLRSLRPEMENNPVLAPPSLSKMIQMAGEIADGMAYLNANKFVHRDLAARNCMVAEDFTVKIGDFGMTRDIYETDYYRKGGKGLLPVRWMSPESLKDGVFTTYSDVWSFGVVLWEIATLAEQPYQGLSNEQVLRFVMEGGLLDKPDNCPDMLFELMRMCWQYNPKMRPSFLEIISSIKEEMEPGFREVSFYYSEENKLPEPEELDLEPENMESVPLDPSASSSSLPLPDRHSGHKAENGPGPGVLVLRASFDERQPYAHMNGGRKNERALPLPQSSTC

B1: human anti-IGF-1R antibody <IGF-1R> HUMAB Clone 18 (DSM ACC 2587) (antibody, V domains shown)
VH: QVELVESGGGVVQPGRSQRLSCAASGFTFSSYGMHWVRQAPGKGLEWVAIIWFDGSSTYYADSVRGRFTISRDNSKNTLYLQMNSLRAEDTAVYFCARELGRRYFDLWGRGTLVSVSS
VL: EIVLTQSPATLSLSPGERATLSCRASQSVSSYLAWYQQKPGQAPRLLIYDASKRATGIPARFSGSGSGTDFTLTISSLEPEDFAVYYCQQRSKWPPWTFGQGTKVESK
Take B1: the IC50 was 1.4 nM in test [1], 1.5 nM in test [2], 1.6 nM in test [3] and 1.5 nM in test [4].

A word on the IC50: it is the concentration at which inhibition is half-maximal. Read a low IC50 as inhibition by little substance.

Values taken from patent publication US20110293613A1 (Hoffmann-La Roche, published 2011).
